Source: patent US20220372114A1 (CURIA IP, published 2022)
Where “and” joins values, the source holds several entries; their conditions need not be identical. Identical values can stand only once.

Assays:
[1] = target: SARS-CoV-2 (WIV02 isolate) prefusion stabilized spike trimer protein (SARS-CoV-2 (WIV02 isolate), UniProt P0DTC2 14-1213); test: ELISA
[2] = target: SARS-CoV-2 spike protein on live wild-type virus (SARS-CoV-2, UniProt P0DTC2 14-1273); test: cell-based or functional assay

Binder | binding result [1] | IC50, BSL3 Vero E6 infection plaque assay [2]
4-K13-A (antibody, V domains shown) VH: QAYLQQSGAELVRPGASVKMSCKASGYTFTSYTVHWVKQTPRQGLEWIGAIYPGNVDTSYNQNFKGKATLTVDKSSSTAYMQLSSLTSEDSAVYFCARDGYYAMDYWGQGTSVTVSS VL: not shown | binds | –
5-P24-A (antibody, V domains shown) VH: QAYLQQSGAELVRPGASVKMSCKASGYTFTSYSMHWVKQTPRQGLEWIGAIYPGNGDTSYTQKFKGKATLTVDKSSSTAYMQLSSLTSEDSAVYFCARDYSNYPFDYWGQGTTLTVSS VL: not shown | binds | –
10-L12-A (antibody, V domains shown) VH: QAYLQQSGAELVRPGASVKMSCKASGYTFTSYSMHWVKQTPRQGLEWIGAIYPGNGDTSYNQKFKGKATLTVDKSSSTAYMQLSSLTSEDSAVYFCTRDYSNYPFDYWGQGTTLTVSS VL: DIVLTQSPASLAVSLGQRATISCRASKSVSTSGYSYLHWYQQKPGQPPKLLIYLASNLESGVPARFSGSGSGTDFTLNIHPVEEEDAATYYCQHSRELPPTFGGGTKLEIK | binds | –
10-B13-A (human Fc IgG2 chimera) (antibody, V domains shown) VH: QVQLQQSGAELVKPGASVKISCKASGYAFSNYWMNWVKQRPGKGLEWIGQIYPGDGDTNYNGNFKGKATLTADKSSSTAYIQLSSLTSEDSAVYFCGRGFIATVVEVFDHWGLGTTLTVSS VL: DIQMTQTTSSLSASLGDRVTISCRASQDISNYLNWYQQKPDGTVKLLIYYTSRLQSGVPSRFSGSGTGTDYSLTISNLEQEDIATYFCQQGNTLPWTFGGGTKLEIK | – | 0.21 µg/mL and 1.4 nM
7-B10-A (antibody, V domains shown) VH: EVQLVESGGGLVQPKGSLKLSCAASGFTFNTYAMHWVRQAPGKGLEWVARIRSKSSNYARYYADSVKDRFTISRDESQSMLYLQMNNLKTEDTAMYYCVRDHDYYGSSYWFAYWGQGTLVTVSA VL: DVVMTQTPLSLPVSLGDQASISCSSSQSLVHNNGNTYLHWYLQKPGQSPKLLIYKVSNRFSGVPDRFSGSGSGTDFTLKISRVEAEDLGVYFCSQSTHVPWTFGGGTKLEIK | binds | –
